# Test results from patent US20030180744, “High affinity oligonucleotide ligands to growth factors” (GILEAD SCIENCES, INC., published 2003).
# T1: KGF (hKGF) (Homo sapiens, UniProt P21781 P21781:32-194)
# T1 sequence: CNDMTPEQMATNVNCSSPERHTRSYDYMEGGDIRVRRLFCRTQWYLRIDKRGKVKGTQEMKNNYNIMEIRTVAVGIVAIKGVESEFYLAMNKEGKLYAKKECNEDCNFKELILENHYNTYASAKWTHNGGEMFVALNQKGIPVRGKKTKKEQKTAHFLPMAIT
# Legend:
# [1] = target: T1, KGF (hKGF); assay: filter; 43-mer, shortest active truncate; retains high and low affinity components; details: tags: Upstate Biotechnology; pseudoknot (predicted)
# Method: In an effort to identify shorter KGF ligands that retained binding, the binding activity of various deletions of the shortest truncate of ligand 14F, namely 14F3′T were tested. Deletions were tested in all the structural elements of the proposed pseudoknot structure. RNA transcripts containing 2′F pyrimidines and 2′OH purines were obtained by in vitro transcription using synthetic DNA templates. The activity of each ligand is shown by scoring for both the high (H) and low (L) affinity component of the 14F3′T binding curve with +(active) or −(not active). Truncates T35 and T36 represent two complementary halves of 14F3′T molecule and were additionally tested as an equimolar mixture. The structural elements of the proposed pseudoknot structure are separated by (1) and are indicated by symbols S1 (stem 1), S2 (stem 2), L1 (loop 1) and L3 (loop 3). The proposed pseudoknot structure for 14F3′T is a non-H-type pseudoknot and lacks L2 (loop 2). The complementary sequences forming S1 (S1 and S1′) and S2 (S2 and S2′) are marked by single and double underlines respectfully. In the tabulated sequences, deleted bases were replaced with periods (.). […] Deletions in loop 3 (L3), however, were tolerated as long as one copy of the RRYY box remained intact. The shortest ligand that retained activity is T22 which is a 43-mer. […]
# [2] = target: T2, PDGF-BB (Homo sapiens, UniProt P01127 P01127:82-190); assay: filter; +/-0.031; high affinity component; PBSM, 37 C; details: tags: R&D Systems, E. coli; chain copies: 2 (inferred); label: 5'-32P; three-way helix junction
# Method: (§1) The fraction of ³²P 5′ nd-labeled DNA ligands bound to varying concentrations of PDGF was determined by the nitrocellulose filter binding method. Minimal ligands tested were 20t (o), 36t (Δ), and 41t (□). Oligonucleotide concentrations in these experiments were ≈10 pM (PDGF-AB and PDGF-BB) and ≈50 pM (PDGF AA). Data points were fitted to eq. 1 (for binding of the DNA ligands to PDGF-AA) or to eq. 2 (for binding to PDGF AB and BB) using the non-linear least squares method. Binding reactions were done at 37° C. in binding buffer (PBSM with 0.01% HSA).
# (§2) ^aData points shown in FIG. 5A were fitted to eq 1 (Example 7). ^bData points in FIGS. 5B and 5C were fitted to eq. 2.
# [3] = target: T3, PDGF-AB (Homo sapiens, UniProt P04085;P01127 P04085:87-211,P01127:82-190); assay: filter; +/-0.011; high affinity component; PBSM, 37 C; details: tags: R&D Systems, E. coli; label: 5'-32P; three-way helix junction
# Method: as §1
# (§3) The binding of ssDNA ligands at low concentrations to varying concentrations of PDGF was determined by the nitrocellulose filter binding method as described (Green et al., (1995) Chemistry and Biology 2:683-695). The concentrations of PDGF stock solutions (in PBS) were determined from the absorbance readings at 280 nm using the following e₂₈₀ values calculated from the amino acid sequences (Gill, S.C. and von Hippel, P. H. (1989) Anal. Biochem. 182:319-326): 19,500 M⁻¹cm⁻¹ for PDGF-AA, 15,700 M⁻¹cm⁻¹ for PDGF-AB and 11,800 M⁻¹cm⁻¹ for PDGF-BB. ssDNA for all binding experiments were purified by electrophoresis on 8% (>80 nucleotides) or 12% (<40 nucleotides) polyacrylamide/7 M urea gels. All ssDNA ligands were heated at 90° C. in binding buffer at high dilution (1 μM) for 2 min and cooled on ice prior to further dilution into the protein solution. The binding mixtures were typically incubated for 15 min at 37° C. before partitioning on nitrocellulose filters.
# as §2
# [4] = target: T4, PDGF-AA (Homo sapiens, UniProt P04085 P04085:87-211); assay: filter; +/-4; PBSM, 0.01% HSA, 37 C; comparable to random DNA; details: tags: R&D Systems, E. coli, long form of A-chain; chain copies: 2 (inferred); label: 5'-32P; three-way helix junction
# Method: as §1
# as §3, with “All ssDNA ligands were heated at 90° C. in binding buffer at high dilution (1 μM) for 2 min and cooled on ice prior to further dilution into the protein solution. The binding mixtures were typically incubated for 15 min at 37° C. before partitioning on nitrocellulose filters.” left out
# [5] = target: T5, TGFβ1 (Homo sapiens, UniProt P01137 P01137:279-390); assay: filter; 37 C; cell IC50 49 nM; details: tags: Genentech; biotinylated version used in bead assay; chain copies: 2
# [6] = target: T5, TGFβ1; assay: cell_activity; details: tags: Genentech or R&D Systems; chain copies: 2
# Method: MLEC-Pail/luc cells were plated at 3.2×10⁴ cells per well in a 96 well Falcon plate, in 100 μl of DME+10% fetal bovine serum overnight. Media was made from autoclaved water. The cells were washed three times ([…]) in serum free DME plus Solution A (1:1). Solution A is 30 mM Hepes pH 7.6, 10 mM glucose, 3.0 mM KCl, 131 mM NaCl, 1.0 mM disodium phosphate. Samples (100 μl) were added in DME containing 20 mM Hepes pH 7.5, and 0.1% BSA (Fluka, radioimmunoassay grade). All samples were in triplicate. After six hours at 37° C. in a 5% CO₂ incubator the media was removed and cells were washed three times (100 μl each) in cold PBS. Lysis buffer (75 μl) (Analytical Luminescence Laboratory) was added and the plates incubated on ice for 20 min. The plates were sealed and frozen at −80° C. until assayed. Samples (25 μl) were assayed for luciferase activity with the Enhanced Luciferase Assay Kit from Analytical Luminescence Laboratory (San Diego, Calif., USA) according to the manufacturer's instructions using the Berthold Microlumat LB96P luminometer.
# Ligands tested for inhibition of TGFβ1 activity were tested at a minimum of five concentrations. The ligands were serially diluted in DME, 20 mM Hepes pH 7.5, 0.1% Fluka BSA in polypropylene tubes and an equal volume of media containing 12 pM TGFβ1 was added to each tube, vortexed and transferred to the cells without further incubation.
# [7] = target: T5, TGFβ1; assay: filter; 2'-OH RNA; details: tags: Genentech; biotinylated version used in bead assay; chain copies: 2
# [8] = target: T3, PDGF-AB; assay: filter; +/-0.009; high affinity component; PBSM, 37 C; details: tags: R&D Systems, E. coli; label: 5'-32P; three-way helix junction
# Method: as §1
# as §3, with “All ssDNA ligands were heated at 90° C. in binding buffer at high dilution (1 μM) for 2 min and cooled on ice prior to further dilution into the protein solution. The binding mixtures were typically incubated for 15 min at 37° C. before partitioning on nitrocellulose filters.” left out
# [9] = target: T2, PDGF-BB; assay: filter; +/-0.011; high affinity component; PBSM, 37 C; details: tags: R&D Systems, E. coli; chain copies: 2 (inferred); label: 5'-32P; three-way helix junction
# Method: as §1, §3, §2
# [10] = target: T4, PDGF-AA; assay: filter; +/-8; PBSM, 37 C; comparable to random DNA; details: tags: R&D Systems, E. coli, long form of A-chain; chain copies: 2 (inferred); label: 5'-32P; three-way helix junction
# Method: as §1
# as §3, with “All ssDNA ligands were heated at 90° C. in binding buffer at high dilution (1 μM) for 2 min and cooled on ice prior to further dilution into the protein solution. The binding mixtures were typically incubated for 15 min at 37° C. before partitioning on nitrocellulose filters.” left out
# [11] = target: T5, TGFβ1; assay: filter; cell IC50 22 nM; details: tags: Genentech; biotinylated version used in bead assay; chain copies: 2
# [12] = target: T5, TGFβ1; assay: filter; cell IC50 119 nM; details: tags: Genentech; biotinylated version used in bead assay; chain copies: 2
# [13] = target: T2, PDGF-BB; assay: filter; +/-0.009; high affinity component; PBSM, 37 C; details: tags: R&D Systems, E. coli; chain copies: 2 (inferred); label: 5'-32P; three-way helix junction
# Method: as §1
# as §3, with “All ssDNA ligands were heated at 90° C. in binding buffer at high dilution (1 μM) for 2 min and cooled on ice prior to further dilution into the protein solution. The binding mixtures were typically incubated for 15 min at 37° C. before partitioning on nitrocellulose filters.” left out
# [14] = target: T4, PDGF-AA; assay: filter; +/-12; PBSM, 37 C; comparable to random DNA; details: tags: R&D Systems, E. coli, long form of A-chain; chain copies: 2 (inferred); label: 5'-32P; three-way helix junction
# Method: as §1
# as §3, with “All ssDNA ligands were heated at 90° C. in binding buffer at high dilution (1 μM) for 2 min and cooled on ice prior to further dilution into the protein solution. The binding mixtures were typically incubated for 15 min at 37° C. before partitioning on nitrocellulose filters.” left out
# [15] = target: T5, TGFβ1; assay: filter; cell IC50 103 and 112 nM; fully effective only against TGFβ1, not TGFβ2 or TGFβ3; details: tags: Genentech; biotinylated version used in bead assay; chain copies: 2
# [16] = target: T5, TGFβ1; assay: filter; C to G at position 53; not inhibitory; details: tags: Genentech; biotinylated version used in bead assay; chain copies: 2
# [17] = target: T5, TGFβ1; assay: filter; not inhibitory; no binding with 2'-NH2 pyrimidines; details: tags: Genentech; biotinylated version used in bead assay; chain copies: 2
# [18] = target: T5, TGFβ1; assay: filter; 2'-OH RNA; printed lib1-6-8 in Table 4; details: tags: Genentech; biotinylated version used in bead assay; chain copies: 2
# [19] = target: T5, TGFβ1; assay: filter; cell IC50 298 and 201 nM; details: tags: Genentech; biotinylated version used in bead assay; chain copies: 2
# T5 sequence (P01137 279-390, one chain of several): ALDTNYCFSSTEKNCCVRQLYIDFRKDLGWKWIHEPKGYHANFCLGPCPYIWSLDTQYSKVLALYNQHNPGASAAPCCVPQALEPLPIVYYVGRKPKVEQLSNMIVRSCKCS
# T2 sequence (P01127 82-190, one chain of several): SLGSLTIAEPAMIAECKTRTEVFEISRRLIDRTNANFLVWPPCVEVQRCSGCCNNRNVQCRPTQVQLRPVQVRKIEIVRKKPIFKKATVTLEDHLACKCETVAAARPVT
# T3 sequence (P01127 82-190, chain 2 of 2, other chains not shown): as the sequence (P01127 82-190, one chain of several) above
binder,measurement,setting,value
"GGGAGGACGAUGCGGUGGUCUCCCAAUUCUUCUCCAUCGUAUC (ssRNA, 2'-F pyrimidines) [T22]",binding result,[1],binds
"TGGGAGGGCGCGTTCTTCGTGGTTACTTTTAGTCCCGT (ssDNA, 3'-3' linked T at 3' end) [20t]",Kd,[2],0.127 nM
same,Kd,[3],0.147 nM
same,Kd,[4],47 nM
"lib5-5 (ssRNA, 2'-NH2 pyrimidines) RNA: GGGGGAGAACGCGGAUCCGAGCAAUCCCAGGCGCAUAGCUUCCGAGUAGACAGGAGGGAGGGGUGGAUGUGGCGUCUCGAGGAAGCUUCGCUCUAGAUCUCCCUUUAGUGAGGGUUA",Kd,[5],2.4 nM
same,IC50,[6],49 nM
lib1-20-12 (ssRNA) RNA: GGGGGAGAACGCGGAUCCGGUCACCCGGGCAUAUAACAAUGCCGACACUGGGGUACCUGGGACGGGUGGGACUGGACGGAAGAAGCUUCGCUCUAGAUCUCCCUUUAGUGAGGGUUA,Kd,[7],3.1 nM
"TACTCAGGGCACTGCAAGCAATTGTGGTCCCAATGGGCTGAGTAT (ssDNA, 3'-3' linked T at 3' end) [41t]",Kd,[8],0.138 nM
same,Kd,[9],0.129 nM
same,Kd,[10],49 nM
"lib3-42 (ssRNA, 2'-NH2 pyrimidines) RNA: GGGGGAGAACGCGGAUCCGGUGGGAAAGUCGGAUUAUGUGUGUAGAUUUGUGUGCGAAAGCUUCGCUCUAGAUCUCCCUUUAGUGAGGGUUA",Kd,[11],0.6 nM
same,IC50,[6],22 nM
"lib3-44 (ssRNA, 2'-NH2 pyrimidines) RNA: GGGGGAGAACGCGGAUCCUGAGAAGGACGUCGGGGUGAGGUGCAGCAGAAAGGGCCGGCACCACAUGACGUAAAAGCUUCGCUCUAGAUCUCCCUUUAGUGAGGGUUA",Kd,[12],1.3 nM
same,IC50,[6],119 nM
"CACAGGCTACGGCACGTAGAGCATCACCATGATCCTGTGT (ssDNA, 3'-3' linked T at 3' end) [36t]",Kd,[13],0.093 nM
same,Kd,[3],0.094 nM
same,Kd,[14],72 nM
"lib2-6-1 (ssRNA, 2'-NH2 U, 2'-F C) RNA: GGGGGAGAACGCGGAUCCUGUCUCCACCGCCGAUACUGGGGUUCCUGGGGCCCCUCCAUGCAGGAGGGGGGUGGUUCGGAGAAAGCUUCGCUCUAGAUCUCCCUUUAGUGAGGGUUA",Kd,[15],14.3 nM
"lib8-23 (ssRNA, 2'-NH2 U, 2'-F C) RNA: GGGGGAGAACGCGGAUCCUGUCUCCACCGCCGAUACUGGGGUUCCUGGGGCCGCUCCAUGCAGGAGGGGGGUGGUUCGGAGAAAGCUUCGCUCUAGAUCUCCCUUUAGUGAGGGUUA",Kd,[16],6.6 nM
"lib1-20-3 (ssRNA, 2'-F pyrimidines) RNA: GGGGGAGAACGCGGAUCCUGCUAGACCGAGGAUGCAAAGGGACAUGCAUUAGGGAAACCUAUGUAUAAGAACGCGGUCGCAGAAGCUUCGCUCUAGAUCUCCCUUUAGUGAGGGUUA",Kd,[17],30 nM
lib2-6-8 (lib1-6-8 in Table 4) (ssRNA) RNA: GGGGGAGAACGCGGAUCCAUAACCGGCUGCAUGGGAGGGACAUCCUGGGAAAGGACGGGUCGAGAUGACCUGAGCAGUUCCGGCAAGCUUCGCUCUAGAUCUCCCUUUAGUGAGGGUUA,Kd,[18],4.7 nM
"lib2-6-1-81 (ssRNA, 2'-NH2 U, 2'-F C) RNA: GGGGGAGAACGCGGAUCCUGUCUCCACCGCCGAUACUGGGGUUCCUGGGGCCCCUCCAUGCAGGAGGGGGGUGGUUCGGAG",Kd,[19],10.7 nM
